Measured values reported in patent US20260152552A1 (CURON BIOPHARMACEUTICAL SHANGHAI, published 2026).
Where a chain is given by its changes, count along the chain named.

B1: anti-L1CAM human-mouse chimeric antibody ch103E9B3 (antibody, V domains shown)
VH: EVQLQQSGPELLKPGASVKISCKASGYTFTSYTMHWVKQSHGKSLEWIGDINPNYGGTSYNEKFKDKATLTVDKSSSTAYMELRSLTSEDSAVYYCAREGATGTWYFDVWGTGTTVTVSS
VL: QIVLTQSPALMSASPGEKVTMTCSASSSVSFMFWYQQKPRSSPKPWIYLTSNLASGVPARFSGSGSGTSYSLTISSMEAEDAATYYCQQWRSNPPTFGAGTKLELK
notes: VH and VL of mouse 103E9B3 with human IgG1 constant regions; The entries as printed seem to begin with a leader peptide
B2: anti-L1CAM human-mouse chimeric antibody ch49E10H1 (antibody, V domains shown)
VH: DVQLQESGPGLVKPSQSLSLTCTVTGYSITSDYAWNWIRQFPGNRLEWMGYITYSGTTTYNPSLKSRISITRDTSKNQFFLQLNSVTTADTATYYCTLDHYGNYAYFDYWGQGTTLTVSS
VL: QIVLSQSPAILSASPGEKVTMTCRASSSVSFMHWYQQKPRSSPKPWIYASSNLVSGVPTRFSGSGSGTSYSLTISRVEAEDAATYYCQQWSSNPSTFGAGTKLELK
notes: VH and VL of mouse 49E10H1 with human IgG1 constant regions; The entries as printed seem to begin with a leader peptide
B3: anti-L1CAM human-mouse chimeric antibody ch46F1D5 (antibody, V domains shown)
VH: QVQVQQSGAELAKPGASMKMSCKASGYTFTRYWMQWVKQRPGQGLEWIGYINPSTGYTDYNQNFKDKATLTADKSSSTAYMQLSSLTSEDSAVYYCARRHLGLPLFDYWGQGTTLTVSS
VL: DIVMTQSHKFMSTSLGDRVSITCKASQDVGTAVAWYQQKPGQSPKLLIYWASTRHTGVPDRFTGSGSGTDFTLTISNVQSEDLAEYFCQQYSNYPLTFGAGTKLDLK
notes: VH and VL of mouse 46F1D5 with human IgG1 constant regions; The entries as printed seem to begin with a leader peptide
B4: anti-L1CAM human-mouse chimeric antibody ch26A12C1 (antibody, V domains shown)
VH: B3 VH with V4L, M18V, R31N, G56Y, T58S, N63K, Y80F, H100Q, L101F, V117L
VL: B3 VL with L15V, A84T, E85D, K103E, D105E
notes: VH and VL of mouse 26A12C1 with human IgG1 constant regions; The entries as printed seem to begin with a leader peptide
B5: anti-L1CAM human-mouse chimeric antibody ch25F8H8 (antibody, V domains shown)
VH: B3 VH with V4L, M18V, K23Q, R31T, Q35H, N63K, H100Q
VL: B3 VL with M11L, L15V, Q38H, Y49F, E85D, T102P, D105E
notes: VH and VL of mouse 25F8H8 with human IgG1 constant regions (CH1, CH2, CH3)
B6: humanized anti-L1CAM antibody hz103E9B3H9L4 (antibody, V domains shown)
VH: EVQLVQSGAEVKKPGASVKVSCKASGYTFTSYTMHWVRQAPGQGLEWIGDINPNYGGTSYNEKFKDRATLTVDKSTSTAYMELRSLRSDDTAVYYCAREGATGTWYFDVWGQGTTVTVSS
VL: DIQMTQSPSSLSASVGDRVTITCSASSSVSFMFWYQQKPGKAPKLLIYLTSNLASGVPSRFSGSGSGTDFTLTISSLQPEDFATYYCQQWRSNPPTFGGGTKVEIK
B7: humanized anti-L1CAM antibody hz103E9B3H9L6 (antibody, V domains shown)
VH: B6 VH
VL: B6 VL with L45P, L46W
B8: humanized anti-L1CAM antibody hz103E9B3H9L5 (antibody, V domains shown)
VH: B6 VH
VL: B6 VL with L45P
B9: mouse anti-L1CAM monoclonal antibody 103E9B3 (antibody, V domains shown)
VH: B1 VH
VL: B1 VL
notes: Mouse IgG tested as hybridoma supernatant
B10: mouse anti-L1CAM monoclonal antibody 49E10H1 (antibody, V domains shown)
VH: B2 VH
VL: B2 VL
notes: as for B9
B11: mouse anti-L1CAM monoclonal antibody 25F8H8 (antibody, V domains shown)
VH: B3 VH with V4L, M18V, K23Q, R31T, Q35H, N63K, H100Q
VL: B3 VL with M11L, L15V, Q38H, Y49F, E85D, T102P, D105E
notes: as for B9
B12: mouse anti-L1CAM monoclonal antibody 46F1D5 (antibody, V domains shown)
VH: B3 VH
VL: B3 VL
notes: as for B9
B13: mouse anti-L1CAM monoclonal antibody 26A12C1 (antibody, V domains shown)
VH: B3 VH with V4L, M18V, R31N, G56Y, T58S, N63K, Y80F, H100Q, L101F, V117L
VL: B3 VL with L15V, A84T, E85D, K103E, D105E
notes: as for B9

Molecular target: T1, human L1CAM (L1 cell adhesion molecule), endogenously expressed on the surface of HeLa cells (human, UniProt P32004 20-1257)
T1 construct: whole, on cells; also called CD171
T1 sequence (P32004 20-1257): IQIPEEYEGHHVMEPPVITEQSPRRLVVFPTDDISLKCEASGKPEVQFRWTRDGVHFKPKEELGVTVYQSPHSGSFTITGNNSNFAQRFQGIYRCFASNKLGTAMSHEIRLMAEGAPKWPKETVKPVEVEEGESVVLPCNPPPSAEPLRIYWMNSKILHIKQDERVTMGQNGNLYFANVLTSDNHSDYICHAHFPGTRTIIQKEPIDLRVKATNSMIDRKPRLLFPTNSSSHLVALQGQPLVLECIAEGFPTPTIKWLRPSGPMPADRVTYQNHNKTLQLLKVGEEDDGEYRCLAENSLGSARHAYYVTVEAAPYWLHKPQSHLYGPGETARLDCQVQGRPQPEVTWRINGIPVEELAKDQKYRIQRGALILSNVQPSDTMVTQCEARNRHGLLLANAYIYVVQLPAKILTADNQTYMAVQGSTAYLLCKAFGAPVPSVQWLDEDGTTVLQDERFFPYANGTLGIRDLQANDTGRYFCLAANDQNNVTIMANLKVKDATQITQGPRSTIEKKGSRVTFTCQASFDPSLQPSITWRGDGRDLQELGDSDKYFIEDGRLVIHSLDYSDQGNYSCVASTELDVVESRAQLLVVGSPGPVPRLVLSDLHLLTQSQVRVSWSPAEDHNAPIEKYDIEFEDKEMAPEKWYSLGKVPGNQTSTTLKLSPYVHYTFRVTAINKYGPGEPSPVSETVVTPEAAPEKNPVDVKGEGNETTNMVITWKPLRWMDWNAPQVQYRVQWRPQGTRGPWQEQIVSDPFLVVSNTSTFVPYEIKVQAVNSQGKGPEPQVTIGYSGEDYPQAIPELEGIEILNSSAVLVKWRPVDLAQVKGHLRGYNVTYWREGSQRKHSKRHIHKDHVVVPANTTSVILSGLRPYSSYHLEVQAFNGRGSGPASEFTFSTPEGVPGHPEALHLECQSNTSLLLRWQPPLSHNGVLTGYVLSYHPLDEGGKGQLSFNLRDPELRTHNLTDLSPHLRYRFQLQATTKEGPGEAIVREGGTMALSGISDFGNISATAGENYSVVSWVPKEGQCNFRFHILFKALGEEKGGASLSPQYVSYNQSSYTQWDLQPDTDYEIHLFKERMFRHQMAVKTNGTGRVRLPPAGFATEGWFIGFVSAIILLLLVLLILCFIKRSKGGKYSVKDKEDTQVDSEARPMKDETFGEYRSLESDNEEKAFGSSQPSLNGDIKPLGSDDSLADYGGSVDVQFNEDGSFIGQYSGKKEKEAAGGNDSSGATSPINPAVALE
Experiment: flow cytometry on HeLa cells (endogenous human L1CAM)
Description: This example utilizes HeLa cells and L1CAM-knockout HeLa cells (purchased from Abcam) to determine the binding of mouse anti-L1CAM monoclonal antibodies to endogenously expressed human L1CAM on the cell surface. L1CAM-knockout HeLa cells are referred to as HeLa KO cells in this invention. HeLa cells are cultured in DMEM complete medium (purchased from Corning) containing 10% FBS (purchased from Gibco) and 100 U/mL penicillin mixture (Thermofisher, 15140122). […] Then, the human-mouse chimeric antibodies are serially diluted in DMEM complete medium, with 25 μL of the diluted chimeric antibody solution added to each well, gently mixed, and incubated at 4° C. for 1 hour. Then, 150 μL of PBS buffer containing 2% FBS (purchased from Corning) is added to each well, centrifuged at 1400 rpm for 4 minutes, the supernatant is removed, and the wells are washed once more. Then, 50 μL of Alexa Flour 647-labeled goat anti-human fluorescent secondary antibody (purchased from Jacksonimmuno) diluted 1:800 is added to each well, and the 96-well plate is incubated at 4° C. for 0.5 hours. The cells are washed twice with PBS solution containing 2% FBS, then resuspended in 120 μL of PBS, and the cell surface fluorescence signal is detected using a flow cytometer (BD FACSCelesta), obtaining the median fluorescence intensity (MFI). A dose-response curve is generated, and the half-maximal effective concentration (EC50) is calculated using non-linear regression with GraphPad software.

EC50 [pM]	Maxium MFI [MFI]	Binder
1110	45400	B1
978	42900	B2
845	43100	B3
739	44700	B4
833	29300	B5

Molecular target: T1, human L1CAM (L1 cell adhesion …)
Experiment: as above
Remark: another data set of the same source
Description: The experimental principle is as follows: HeLa cells express high levels of L1CAM protein on their surface. After incubating humanized L1CAM antibodies with the cells, the binding ability of the antibodies to L1CAM on the surface of HeLa cells can be determined by flow cytometry. The experimental method is descripted as following: Humanized L1CAM antibodies (Human IgG1-Kappa) are diluted in complete medium in a four-fold serial dilution, with seven concentration gradient points. HeLa cells are cultured in DMEM complete medium (Corning, 10-013-CVR) containing 10% FBS (Gibco, 10099-141) and 100 U/mL penicillin mixture (Thermofisher, 15140122). When the cell coverage in the culture container reaches 80-90%, TrypLE (Thermofisher, 12604-013) is used to digest the HeLa cells from the culture container, and they are seeded in a 96-well plate (AXYGEN, P-96-450V-C) at a density of 2.2×10⁶ cells/ml, with 100,000 cells (45 μL complete medium) per well. Then, 5 μL of the antibody dilution is added to each well, gently mixed, and the 96-well plate is incubated at 4° C. for 1 hour. Then, 150 μL of PBS solution containing 2% FBS (Corning, 21-040-CVC) is added to each well, centrifuged at 1400 rpm for 4 minutes, the supernatant is removed, and the wells are washed once more. Then, 50 μL of Alexa Flour 647-labeled goat anti-human fluorescent secondary antibody (Jacksonimmuno, 109-605-088) diluted 1:800 is added to each well, and the 96-well plate is incubated at 4° C. for 0.5 hours. The cells are washed twice with PBS solution containing 2% FBS, then resuspended in 120 μL of PBS, and the cell surface fluorescence signal is detected using a flow cytometer (BD FACS Celesta), obtaining the median fluorescence intensity (MFI). A dose-response curve is generated, and the half-maximal effective concentration (EC50) is calculated using non-linear regression with GraphPad software.

EC50 [pM]	Binder
1210	B1
5560	B6
2060	B7
1960	B8

Molecular target: T1, human L1CAM (L1 cell adhesion …)
Experiment: flow cytometry on HeLa cells (endogenous human L1CAM), hybridoma supernatant
Description: HeLa cells used in this example were used to measure the binding of mouse anti-L1CAM monoclonal antibodies to endogenously expressed human L1CAM on the cell surface. HeLa cells were cultured in DMEM complete medium (purchased from Corning) containing 10% FBS (purchased from Gibco) and 100 U/mL penicillin-streptomycin mixture (Thermofisher, 15140122). When the coverage of the cells in the culture container reached to 80-90%, using TrypLE (purchased from Thermofisher) to digest Hela cells from the culture container, and seed them in a 96-well plate (purchased from AXYGEN) at a density of 4×10⁶ cells/ml, with 100,000 cells per well (25 μL DMEM complete culture medium), then add 25 μL of diluted hybridoma supernatant containing antibodies to each well, mix gently, and incubate the 96-well plate at 4° C. for 1 hour. Then add 150 μL of PBS buffer containing 2% FBS (purchased from Corning) to each well, centrifuge at 1400 rpm for 4 minutes, remove the supernatant, and repeat washing once. Then, 50 μL of 1:800 diluted Alexa Flour 647-labeled goat anti-mouse fluorescent secondary antibody (purchased from Jacksonimmuno) was added to each well, and the 96-well plate was incubated at 4° C. for 0.5 hours. The cells were washed twice with PBS solution containing 2% FBS, and then resuspended in 120 μL of PBS. The fluorescence signal on the cell surface was detected using a flow cytometer (BD FACSCelesta) to obtain the median fluorescence intensity (MFI). The antibody-containing hybridoma supernatant was assayed using an anti-mouse ELISA assay to determine the concentration of mouse IgG in the supernatant. Finally, a dose-response curve was generated, and the half effective concentration (EC50) was calculated by nonlinear regression using GraphPad software.

EC50 [pM]	Binder
436	B9
233	B10
193	B11
144	B12
241	B13
